According to paper PMC3158298:

Molecular target: CC-Aβ_(1-40)E22Δ
Test: split tetra-Cys FlAsH fluorescence

CC-Aβ_(1-40)E22Δ (peptide)
FlAsH fluorescence intensity relative to CC-Aβ (1-40): 1.5 fold
